This note sets out measurements from PMC4275181, “Evolution of RNA-Protein Interactions: Non-Specific Binding Led to RNA Splicing Activity of Fungal Mitochondrial Tyrosyl-tRNA Synthetases” (PLoS Biology, 2014).

This data set concerns the molecule itself. The data set can be described thus: SAXS; molecular weight from forward scattering I(0) against a bovine serum albumin standard; free protein at at least three concentrations in 100 mM KCl, 5 mM MgCl2, 10 mM Tris-HCl (pH 7.5), 5% glycerol.

B1: CYT-18* (Neurospora crassa mitochondrial tyrosyl-tRNA synthetase lacking the mitochondrial targeting sequence and most of the C-tail) (enzyme)
chain: MLRREFGPKYTAKINEAEENWQARAEAIKKGKKQNTWDLFEERGYVKDTAGTKEHIAELMRTRRIGAYVGIDPTAPSLHVGHLLPLMPLFWMYLEGYKAFTLIGGSTAKIGDPTGRLKSRDHLSSSDATMNMTKIHYQLKKLWENVDTQMRARGYEADWARKRGIVNNNHWWNKQPMLEVLRRVGHALRIGPMLSRDTVKNKMTQGDGVSFAEFTYPIMQGWDWFELFYQQGVQMQIGGSDQYGNIISGLEVVKAARESEPDPQERKYVTPKTALDECVGFTVPLLTDSSGAKFGKSAGNAIWLDPYQTSVFDFYGYFVRRSDQEVENLLKLFTFMPISEITKTMEEHIKDPSKRVAQHTLAREVVTLVHGKQEASAAEDQHRMMYTGQMTIPQVSRAKDAATGGDQYKTISDQPVTLNNAPRIDMILPESLIMGKSIGRILYAAGLASSTTEGHKLAAAQGCYVGGAHRAGGENVTMNPDLISFMPVKLWFPGETQRYLINGNLLILRKGKHNVRVIQMVSDVEYAASGQTYPGQSFTGAVRKLNEIMKNL
notes: extra N-terminal methionine of the expression construct; stop codons introduced after Leu583; Derived from pEX560 (wild-type CYT-18, amino acids 33-669); also called CYT18/ΔC-tail; N. crassa mtTyrRS
Broadly, the stoichiometry N is the number of molecules, sites or subunits per partner or assembly. Take B1: the “stoichiometry N” value amounted to 2.
